# Article PMC12151148 (2024)
# No end group written: not given here.
# B1: AGS3-GL1234 (470–631) (domain or fragment)
# chain: EECFFDLLSKFQSSRMDDQRCPLEEGQAGAAEATAAPSVEDRAAQSSVTASPQTEEFFDLIASSQSRRLDDQRASVGSLPGLRITLNNVGHLRGDGDAQEPGDEFFNMLIKYQSSRIDDQRCPPPDVLPRGPTMPDEDFFSLIQRVQAKRMDEQRVDLAGSP
# B2: LGN-GL1234 (483–650) (domain or fragment)
# chain: DEGFFDLLRRFQSNRMDDQRCHLQGNCRTTSTAAASATPKLMKAPSVSVVSPNTDEFLDLLASSQSRRLDDQRASFSNLPGLRLTKGNSPSVLERLMTNDKKEPDEDFFDILVKCQGSRLDDQRCAPPSAATKGPTVPDEDFFSLILRSQAKRMDEQRVLLQRDPNRD
# Target: T1, AGS3 (Homo sapiens, UniProt Q86YR5)
# T1 chain: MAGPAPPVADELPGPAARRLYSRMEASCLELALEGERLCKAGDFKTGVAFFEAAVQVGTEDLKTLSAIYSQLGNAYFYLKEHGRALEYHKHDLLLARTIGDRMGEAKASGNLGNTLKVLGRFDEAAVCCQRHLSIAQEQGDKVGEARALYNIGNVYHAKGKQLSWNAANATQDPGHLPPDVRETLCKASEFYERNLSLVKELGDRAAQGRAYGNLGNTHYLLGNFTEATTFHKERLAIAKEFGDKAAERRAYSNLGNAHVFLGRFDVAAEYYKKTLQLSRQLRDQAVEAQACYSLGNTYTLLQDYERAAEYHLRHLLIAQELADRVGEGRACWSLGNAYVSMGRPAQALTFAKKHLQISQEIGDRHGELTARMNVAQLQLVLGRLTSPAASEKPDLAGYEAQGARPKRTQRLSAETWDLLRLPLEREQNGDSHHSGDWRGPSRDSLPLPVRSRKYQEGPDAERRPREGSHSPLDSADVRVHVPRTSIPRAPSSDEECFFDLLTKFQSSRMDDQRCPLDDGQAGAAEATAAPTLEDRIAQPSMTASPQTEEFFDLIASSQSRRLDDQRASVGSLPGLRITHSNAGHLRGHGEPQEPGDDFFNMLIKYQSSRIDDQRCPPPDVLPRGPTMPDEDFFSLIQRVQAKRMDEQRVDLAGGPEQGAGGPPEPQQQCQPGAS
# Experiment: not given
row,Binder,Kd [nM]
1,WGLWGVQESRRLCCAGHDRCKQALLQIGINMMALPGGRHLDSVTLPGQR,2270
2,WGLWGVQESRRLCCAGHDRCKQALLQIGINMMALPGGRHLDSVTLPGQR (not fully specified; cysteine pairing not given here),2290

# Target: T2, LGN (Homo sapiens, UniProt P81274)
# T2 chain: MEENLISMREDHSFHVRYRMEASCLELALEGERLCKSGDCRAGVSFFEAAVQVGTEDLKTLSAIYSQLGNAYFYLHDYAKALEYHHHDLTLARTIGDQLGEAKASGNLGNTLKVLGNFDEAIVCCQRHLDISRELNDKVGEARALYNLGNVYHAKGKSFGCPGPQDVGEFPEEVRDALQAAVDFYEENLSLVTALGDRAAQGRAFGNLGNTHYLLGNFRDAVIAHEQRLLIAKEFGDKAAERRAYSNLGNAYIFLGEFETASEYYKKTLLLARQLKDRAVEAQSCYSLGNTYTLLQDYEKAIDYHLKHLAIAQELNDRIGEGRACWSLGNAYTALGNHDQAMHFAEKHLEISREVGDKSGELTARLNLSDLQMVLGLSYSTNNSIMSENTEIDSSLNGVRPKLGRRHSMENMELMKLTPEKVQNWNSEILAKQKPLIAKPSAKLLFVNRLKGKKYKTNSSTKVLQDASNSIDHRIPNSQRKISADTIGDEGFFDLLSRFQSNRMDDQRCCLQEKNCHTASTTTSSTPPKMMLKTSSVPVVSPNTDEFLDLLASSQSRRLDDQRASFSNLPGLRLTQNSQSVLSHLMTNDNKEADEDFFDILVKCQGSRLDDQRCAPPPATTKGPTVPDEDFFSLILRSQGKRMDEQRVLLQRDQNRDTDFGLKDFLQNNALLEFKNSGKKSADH
# Experiment: not given
row,Binder,Kd [nM]
1,WGLWGVQESRRLCCAGHDRCKQALLQIGINMMALPGGRHLDSVTLPGQR,3920
2,WGLWGVQESRRLCCAGHDRCKQALLQIGINMMALPGGRHLDSVTLPGQR (not fully specified; cysteine pairing not given here),2620

# Target: T3, LGN-TPR (1–409) (mouse)
# T3 chain: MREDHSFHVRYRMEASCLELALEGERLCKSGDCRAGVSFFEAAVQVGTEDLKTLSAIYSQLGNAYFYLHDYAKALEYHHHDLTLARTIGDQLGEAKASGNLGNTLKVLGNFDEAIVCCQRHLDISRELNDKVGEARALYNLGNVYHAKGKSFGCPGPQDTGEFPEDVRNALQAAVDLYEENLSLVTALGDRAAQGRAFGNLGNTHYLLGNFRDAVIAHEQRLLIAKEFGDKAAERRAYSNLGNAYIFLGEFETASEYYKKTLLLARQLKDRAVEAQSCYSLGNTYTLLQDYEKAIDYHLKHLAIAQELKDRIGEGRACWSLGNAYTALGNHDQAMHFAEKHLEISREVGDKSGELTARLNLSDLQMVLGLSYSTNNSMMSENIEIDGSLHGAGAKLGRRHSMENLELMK
# Experiment: ITC
row,Binder,Kd [nM]
1,NSFYMGTCQDEPEQLDDWNRIAELQQR (domain or fragment) [NuMA (1886–1912)],630

# Target: T4, Gαi3⋅GDP (human, UniProt P08754 1-354)
# T4 chain: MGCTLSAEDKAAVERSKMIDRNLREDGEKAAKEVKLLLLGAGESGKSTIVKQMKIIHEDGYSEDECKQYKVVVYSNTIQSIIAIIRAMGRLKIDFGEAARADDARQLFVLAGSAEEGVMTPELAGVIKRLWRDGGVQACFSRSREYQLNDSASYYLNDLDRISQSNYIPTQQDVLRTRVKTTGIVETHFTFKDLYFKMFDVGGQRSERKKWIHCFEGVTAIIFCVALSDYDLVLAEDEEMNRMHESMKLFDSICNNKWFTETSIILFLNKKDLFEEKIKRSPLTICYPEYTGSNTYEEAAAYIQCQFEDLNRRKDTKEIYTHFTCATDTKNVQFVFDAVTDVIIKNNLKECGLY
# Experiment: ITC
row,Binder,Kd [nM]
1,GDEFFNMLIKYQSSRIDDQRCPP (domain or fragment) [AGS3 GL3 motif],260
2,TDEFLDLLASSQSRRLDDQRASF (domain or fragment) [LGN GL2 motif],41.5
3,DEGFFDLLRRFQSNRMDDQRCHL (domain or fragment) [LGN GL1 motif],330
4,EECFFDLLSKFQSSRMDDQRCPL (domain or fragment) [AGS3 GL1 motif],300
5,DEDFFSLIQRVQAKRMDEQRVDL (domain or fragment) [AGS3 GL4 motif],320
6,TEEFFDLIASSQSRRLDDQRASV (domain or fragment) [AGS3 GL2 motif],36.5

# Target: T5, AGS3-L (−23–405) (mouse)
# T5 chain: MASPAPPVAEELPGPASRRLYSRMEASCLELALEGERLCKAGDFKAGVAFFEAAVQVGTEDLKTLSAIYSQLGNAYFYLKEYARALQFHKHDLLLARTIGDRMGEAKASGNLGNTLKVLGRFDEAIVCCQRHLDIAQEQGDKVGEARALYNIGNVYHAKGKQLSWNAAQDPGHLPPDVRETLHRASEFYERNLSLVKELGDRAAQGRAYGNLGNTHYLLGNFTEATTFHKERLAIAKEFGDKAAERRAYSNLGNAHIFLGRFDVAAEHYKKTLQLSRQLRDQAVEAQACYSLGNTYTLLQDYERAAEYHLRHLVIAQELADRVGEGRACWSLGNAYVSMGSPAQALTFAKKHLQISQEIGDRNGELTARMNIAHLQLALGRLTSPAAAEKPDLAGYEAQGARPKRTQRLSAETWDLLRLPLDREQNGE
# Experiment: ITC
row,Binder,Kd [nM]
1,NSFYMGTCQDEPEQLDDWNRIAELQQR (domain or fragment) [NuMA (1886–1912)],240

# Target: T6, FL-AGS3-4E (mouse, UniProt Q6IR34)
# T6 sequence (Q6IR34 whole entry, looked up): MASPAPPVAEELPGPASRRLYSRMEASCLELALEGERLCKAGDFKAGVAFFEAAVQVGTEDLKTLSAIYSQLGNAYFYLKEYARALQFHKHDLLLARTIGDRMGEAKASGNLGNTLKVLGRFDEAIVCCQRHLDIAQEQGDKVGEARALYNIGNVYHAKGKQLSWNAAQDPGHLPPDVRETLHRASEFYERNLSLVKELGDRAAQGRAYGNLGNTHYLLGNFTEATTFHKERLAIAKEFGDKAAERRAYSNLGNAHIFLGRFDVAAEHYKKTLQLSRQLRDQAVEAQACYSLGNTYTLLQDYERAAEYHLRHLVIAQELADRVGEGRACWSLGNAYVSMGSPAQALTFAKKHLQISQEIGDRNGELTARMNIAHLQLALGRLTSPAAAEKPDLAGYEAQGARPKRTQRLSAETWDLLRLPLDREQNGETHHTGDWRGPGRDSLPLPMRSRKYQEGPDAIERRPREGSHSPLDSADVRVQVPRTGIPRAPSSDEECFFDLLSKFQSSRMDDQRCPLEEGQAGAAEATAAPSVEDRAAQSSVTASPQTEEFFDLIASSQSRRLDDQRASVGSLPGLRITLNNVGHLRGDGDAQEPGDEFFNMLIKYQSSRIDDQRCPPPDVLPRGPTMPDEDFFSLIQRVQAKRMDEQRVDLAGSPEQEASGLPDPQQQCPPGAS
# Experiment: ITC
row,Binder,Kd [nM]
1,NSFYMGTCQDEPEQLDDWNRIAELQQR (domain or fragment) [NuMA (1886–1912)],280

# Target: T7, FL-LGN-4E (mouse, UniProt Q8VDU0)
# T7 sequence (Q8VDU0 whole entry, looked up): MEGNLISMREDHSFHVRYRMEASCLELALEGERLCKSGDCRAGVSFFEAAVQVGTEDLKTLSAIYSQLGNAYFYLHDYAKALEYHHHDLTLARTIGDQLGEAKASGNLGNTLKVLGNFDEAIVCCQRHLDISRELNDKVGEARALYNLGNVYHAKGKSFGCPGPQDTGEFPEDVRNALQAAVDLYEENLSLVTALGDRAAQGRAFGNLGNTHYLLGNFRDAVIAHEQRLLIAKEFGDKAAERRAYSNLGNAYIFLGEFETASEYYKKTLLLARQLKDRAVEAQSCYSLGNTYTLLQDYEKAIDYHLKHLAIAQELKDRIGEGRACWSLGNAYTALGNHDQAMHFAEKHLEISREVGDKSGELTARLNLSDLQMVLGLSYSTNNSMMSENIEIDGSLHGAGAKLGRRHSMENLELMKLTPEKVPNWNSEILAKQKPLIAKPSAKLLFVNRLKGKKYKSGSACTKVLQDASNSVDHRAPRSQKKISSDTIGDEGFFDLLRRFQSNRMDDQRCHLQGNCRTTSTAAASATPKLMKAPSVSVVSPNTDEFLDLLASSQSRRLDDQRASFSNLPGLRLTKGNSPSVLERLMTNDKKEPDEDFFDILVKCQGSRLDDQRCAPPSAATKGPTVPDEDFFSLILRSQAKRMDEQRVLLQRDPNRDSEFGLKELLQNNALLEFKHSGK
# Experiment: ITC
row,Binder,Kd [nM]
1,NSFYMGTCQDEPEQLDDWNRIAELQQR (domain or fragment) [NuMA (1886–1912)],200

# Target: T4, Gαi3⋅GDP
# Experiment: ITC; GDP
row,Binder,Kd [nM]
1,GDEFFNMLIKYQSSRIDDQRCPP (domain or fragment) [AGS3 GL3 motif],260
2,B1,280
3,TDEFLDLLASSQSRRLDDQRASF (domain or fragment) [LGN GL2 motif],40
4,DEGFFDLLRRFQSNRMDDQRCHL (domain or fragment) [LGN GL1 motif],330
5,DEDFFSLILRSQAKRMDEQRVLL (domain or fragment) [LGN GL4 motif],200
6,EECFFDLLSKFQSSRMDDQRCPL (domain or fragment) [AGS3 GL1 motif],300
7,B2,260
8,DEDFFSLIQRVQAKRMDEQRVDL (domain or fragment) [AGS3 GL4 motif],330
9,DEDFFDILVKCQGSRLDDQRCAP (domain or fragment) [LGN GL3 motif],40
10,TEEFFDLIASSQSRRLDDQRASV (domain or fragment) [AGS3 GL2 motif],40
